We go through 10 molecules from US20230235054A1 (BIOATLA, published 2023).

A word on the Kd: it is the constant that tells how readily two partners part at equilibrium. High values mean weaker binding, low ones tighter binding. A word on the koff: it is a measure of how fast the partners let go of each other. Higher therefore signals fast dissociation. The term kon denotes the rate constant with which the complex forms. A high value points to faster complex formation.

The labels stand for the following.
B1: BAP-143-wildtype (antibody, V domains shown)
VH: EVQLVESGGGLVQPGGSLRLSCAASGFTFSSYNMNWVRQAPGKGLEWVSYISSSSSTIYYADSVKGRFTISRDNAKNSLSLQMNSLRDEDTAVYYCARAYYYGMDVWGQGTTVTVSS
VL: DIQMTQSPSSVSASVGDRVTITCRASQGISGWLAWYQQKPGKAPKFLIYAASTLQSGVPSRFSGSGSGTDFTLTISSLQPEDFATYYCQQANSFPPTFGGGTKVEIK
notes: 150 kDa used in SPR; also called BAP143-00-00; benchmark (BM)
B2: BAP-143-00-05 (antibody, V domains shown)
VH: B1 VH with R98E
VL: B1 VL
notes: Used as a conjugate with a linker payload (CAB ADC)
B3: BAP-143-00-01 (antibody, V domains shown)
VH: B1 VH
VL: B1 VL with L33E
notes: as for B2
B4: BAP-143-00-02 (antibody, V domains shown)
VH: B1 VH
VL: B1 VL with F94E
notes: as for B2
B5: BAP-143-00-06 (antibody, V domains shown)
VH: B1 VH with M104D
VL: B1 VL
notes: as for B2
B6: BAP-143-00-03 (antibody, V domains shown)
VH: B1 VH
VL: B1 VL with P96D
notes: as for B2
B7: BAP-143-00-04 (antibody, V domains shown)
VH: B1 VH with M34D
VL: B1 VL
notes: as for B2
B8: BAP-143-06-24-16 (antibody, V domains shown)
VH: EVQLVQSGAEVKKPGATVKISCKVSGFTFSSYNMNWIRQSPSRGLEWLGYISSSSSTIYYADSVKGRFTISRDNSKNTLYLQMNSLRAEDTAVYYCARAYYYGDDVWGQGTLVTVSS
VL: B1 VL with R24H
notes: as for B2
B9: BAP-143-06-33-16 (antibody, V domains shown)
VH: B8 VH
VL: B1 VL with L33E
notes: as for B2
B10: BAP-143-07-03-12 (antibody, V domains shown)
VH: B1 VH with V106K
VL: B1 VL with L33E
notes: as for B2

Residue numbers refer to the chain shown, from its start.

For the first assay, the target named is T1, cynoNectin4-mFc (cyno, UniProt A0A2K5WES1 32-349).
T1 construct: Immobilized on the SPR chip; also called cyanoNectin4; not shown: mFc (mouse Fc)
T1 sequence: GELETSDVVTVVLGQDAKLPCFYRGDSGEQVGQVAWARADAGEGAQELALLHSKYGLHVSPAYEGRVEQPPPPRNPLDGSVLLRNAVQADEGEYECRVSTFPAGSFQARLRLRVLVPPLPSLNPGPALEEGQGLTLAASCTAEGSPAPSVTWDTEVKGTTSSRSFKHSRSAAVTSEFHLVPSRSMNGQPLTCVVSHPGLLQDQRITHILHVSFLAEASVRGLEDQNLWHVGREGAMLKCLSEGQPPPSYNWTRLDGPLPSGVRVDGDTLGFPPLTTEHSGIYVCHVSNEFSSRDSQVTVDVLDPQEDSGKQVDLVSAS
As to the kind of experiment: SPR, cynoNectin4-mFc immobilized, pH 6.5. The protocol:
(§1) Binding kinetics of anti-Nectin4 antibodies were measured by surface plasmon resonance using a SPR2/4 instrument (Sierra Sensors, Hamburg, Germany) and flat amine sensor chips. The SPR sensor contained four flow cells (FC1-FC4), each of which was addressed individually or in groups. huNectin4-His was immobilized in FC2, and cynoNectin4-mFc in FC4. No protein was immobilized in FC1 and FC3 which were used as control surfaces for FC2 and FC4, respectively.
(§2) All injections were done at a flow rate of 25 μL/min at 25° C. The sensor surface was activated with 1-ethyl-3-(3-dimethylaminopropyl)-carbodiimide (EDC) and N-hydroxysuccinimide (NHS) (200 mM/50 mM) for 480 seconds. HuNectin4-His (2 μg/mL in 10 mM NaAc, pH4.5) was injected for 480s and the surface was inactivated by injecting 1M ethanolamine-HCl for 480s. CynoNectin4 was immobilized using the same conditions as described for huNectin4-His, except that the cynoNectin4 was diluted into 10 mM NaAc buffer having pH 5.0. The control surface was activated and deactivated using the same conditions, but without injecting protein. PBST buffer (PBS pH 7.4 with 0.05% TWEEN20™) was used as running buffer for the surface preparation. The running solution was switched to PBST with 30 mM sodium bicarbonate with the pH adjusted as indicated in the figures before the analyte injections. The instrument was equilibrated with the running solution for one hour before the first analyte injection.
(§3) The off-rate was measured for 360s. The chip surface was regenerated after each cycle of interaction analysis by injecting 6 μL of 10 mM glycine (pH 2.0). Flow cells 1 and 3 without immobilized protein were used as control surfaces for reference subtraction.
In turn, B1 gave a dissociation constant (Kd) of 0.52 nM.
In turn, B2 displayed a dissociation constant (Kd) of 3.96 nM, an off-rate constant (koff) of 0.00237 s⁻¹ and a kon of 599000 M⁻¹ s⁻¹.
On the same counts, the results for B3 are 2.94 nM, 0.00134 s⁻¹ and 457000 M⁻¹ s⁻¹.
On the same counts, the results for B4 are 4.71 nM, 0.00179 s⁻¹ and 380000 M⁻¹ s⁻¹.
On the same counts, the results for B5 are 0.398 nM, 0.000769 s⁻¹ and 1.93e+06 M⁻¹ s⁻¹.
Take B6: the affinity, expressed as Kd, was 1.86 nM; the koff stood at 0.00124 s⁻¹; the on-rate (kon) worked out at 668000 M⁻¹ s⁻¹.
For B7, in that order: 1.12 nM, 0.0018 s⁻¹ and 1.6e+06 M⁻¹ s⁻¹.

The next assay concerns the target T2, RatNectin4-His (rat, UniProt D3ZET1 31-348).
T2 construct: Immobilized on the SPR chip; not shown: His tag
T2 sequence: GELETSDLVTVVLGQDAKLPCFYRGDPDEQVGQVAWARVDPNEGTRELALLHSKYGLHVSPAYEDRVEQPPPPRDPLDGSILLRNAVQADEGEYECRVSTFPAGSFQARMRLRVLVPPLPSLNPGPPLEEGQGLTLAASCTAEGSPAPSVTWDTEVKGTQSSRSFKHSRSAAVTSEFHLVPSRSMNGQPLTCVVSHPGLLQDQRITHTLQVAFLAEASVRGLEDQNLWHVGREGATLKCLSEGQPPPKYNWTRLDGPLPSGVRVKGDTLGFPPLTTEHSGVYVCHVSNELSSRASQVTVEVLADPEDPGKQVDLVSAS
Briefly: SPR, RatNectin4-His immobilized, pH 7.4. As to the method:
as §2, §3
In addition, data with buffer only as analyte (0 nM analyte) was subtracted from each run. Double subtracted data was fitted with the provided analysis software Analyzer R2 (Sierra Sensors) using a 1:1 binding model. A molecular weight of 150 kDa was used to calculate the molar concentrations of the analytes. RatNectin4-His was immobilized in FC3 using the same conditions as described for cynoNectin4.
For B1, the dissociation constant Kd is 0.135 nM.
B8 registered a Kd of 0.171 nM, a dissociation rate constant (koff) of 0.000178 s⁻¹ and a kon of 1.04e+06 M⁻¹ s⁻¹.
In turn, B9 had a Kd of 1.94 nM, an off-rate (koff) of 0.000261 s⁻¹ and a kon of 135000 M⁻¹ s⁻¹.
On the same counts, the results for B3 are 2.42 nM, 0.000875 s⁻¹ and 361000 M⁻¹ s⁻¹.
For B10, in that order: 1.31 nM, 0.000731 s⁻¹ and 557000 M⁻¹ s⁻¹.

The next assay addresses T3, recombinant human Nectin4 antigen (human, UniProt Q96NY8 32-349).
T3 construct: construct not described
T3 sequence (looked up): T1 sequence with A39V, V230I
Briefly: pH range ELISA, 30 ng/mL, pH of 50% binding activity. The protocol: 1) Coat ELISA plates with 100 μL of 1 μg/mL recombinant human Nectin4 antigen in carbonate-bicarbonate coating buffer [0462] 2) Cover plates with sealing film and incubate overnight at 4° C. […] 3) Decant plates and tap out residual liquid on a stack of paper towels [0464] 4) Wash wells twice by dispensing 200 μL of various pH incubation buffer to the wells and completely aspirate the contents [0465] 5) Add 200 μL of various pH incubation buffers (pH5.5, 6.0, 6.2, 6.5, 6.7, 7.0 and 7.4) to the wells. Cover with sealing film and place the plate onto a plate shaker (set to 200 rpm) for 60 minutes at room temperature [0466] 6) Decant plates and tap out residual liquid on a stack of paper towels [0467] 7) Serially dilute test substances in various pH incubation buffers (pH5.5, 6.0, 6.2, 6.5, 6.7, 7.0 and 7.4) to 30 ng/mL [0468] 8) Add 100 μL/well of diluted test substances to the plates [0469] 9) Cover with sealing film and place the plates onto a plate shaker (set to 200 rpm) for 60 minutes at room temperature. [0470] 10) Decant plates and tap out residual liquid on a stack of paper towels. […] 12) Dilute the HRP secondary antibody at 1:2500 in various pH incubation buffers (pH5.5, 6.0, 6.2, 6.5, 6.7, 7.0 and 7.4) [0473] 13) Add 100 μL HRP secondary antibody diluted in various pH incubation buffers (pH5.5, 6.0, 6.2, 6.5, 6.7, 7.0 and 7.4) to each well. […] 14) Cover with sealing film and place the plates onto a plate shaker (set to 200 rpm) for 60 minutes at room temperature. [0475] 15) Decant plates and tap out residual liquid on a stack of paper towels. […] 16) Wash wells three times by dispensing 200 μL of various pH wash buffer (pH5.5, 6.0, 6.2, 6.5, 6.7, 7.0 and 7.4) to the wells and completely aspirating the contents [0477] 17) Dispense 50 μL per well of the TMB substrate solution into all wells of plates.
For orientation: An ELISA detects its analyte on a solid surface through an enzyme-linked reagent.
Regarding B2, the pH inflection point is 6.99 pH.
Still for that read-out and setting: as for B3, the figure is 6.59 pH.
The same measure, in the same setting: as for B4, the figure is 6.7 pH; as for B5, 6.77 pH; as for B6, 6.71 pH.
Same read-out and setting: to B7 belongs 6.81 pH.

For a further assay, the target named is T4, huNectin4-His (human, UniProt Q96NY8 32-349).
T4 construct: Immobilized on the SPR chip; also called humanNectin4; human Nectin4; not shown: His tag
T4 sequence (looked up): T1 sequence with A39V, V230I
As to the kind of experiment: SPR, huNectin4-His immobilized, pH 7.4. The protocol:
as §1, §2, §3
In turn, B1 showed a Kd of 0.127 nM.
B8 returned a Kd of 0.0067 nM, a koff of 5.21e-06 s⁻¹ and an on-rate constant (kon) of 778000 M⁻¹ s⁻¹.
In the case of B9, the Kd is 0.17 nM, the off-rate constant (koff) amounted to 2.01e-05 s⁻¹ and the kon is 119000 M⁻¹ s⁻¹.
On the same counts, the results for B3 are 1.81 nM, 0.000517 s⁻¹ and 285000 M⁻¹ s⁻¹.
On the same counts, the results for B10 are 0.925 nM, 0.000401 s⁻¹ and 434000 M⁻¹ s⁻¹.
